From a protein production outcome set (Wang et al. 2014)

Assay: label from the status in PepcDB records

Sequence	protein production
MTAEIDIQNSIRLELSRHGHYVFRANVGKVRMPNGRIFDTGLPKGFPDLFGFRGTDGKMFFIEVKNEIGKLRQEQKNFQQAMEITPAIGVARSAEEALKIVEGLEHHHHHH	failed
MTAEVLIGDGDVRLSPHPLRAIVLGEVHARPFTALSLPARVLHFAFDTSGQRAAADRAAMISFCESRGLQPPPPGEKHHRANFGTTTLRWEQHSEFTTYTWEIPADPAGVPFHPEASSLASPMRLLPQPGPLLVAVDLHAMPEDPPRTSPERLFDRASLAVAENSDGAALFATDFQPGPSGFVRVLVIDRGMSAERAGALVQRVLEVETYRTLALLGLPEAQRLAPSIAASERRLAEVTAEMRRAGDLANNNKLLQELTELAAEVEAGAAASLYRFGASRAYDEIMNGRLATLGERKVGGLPTWSSFLARRMKPAMRTCATTEARQSDLSLKLARAANLLRTRVDVEVEQQNQELLKSMNARTRLQLRLQTTVEGLSTAAITYYVVGLFGYMVKGAAEAGRLKIDPNLLTAGFVPIAALVIWWTIRRIRKKHIPDVD	failed
MTAFDPFEDFGDTEEIGERLNDADPAVRRLAVIDLAETANADVLPHLLTAVADPDATVRLQVAIALSEFDTVEAAAGLARLAADQDLTVAQAAADSLAELKDPATADSILPLVSHGRAFVRAAGFRGLKALRSRGALAPALAAMRDEDANVRAQALGVVAYLKLEETLPSLIAATRDAEAIVRSVAVNALSFTSQPAAAAAVTAALDDENWQVRAAAADTLGRIGQTSAVDGLTAGLSDEYWQVRQKCLNALGKLKAQSAVRQISELLTSDLASLRKESAAALGEIADPSSRAVLMHHIGDADPDVRKTVCWALTRLG	failed
MTAFRQRPLRLGHRGAPLKAKENTLESFRLALEAGLDGVELDVWPTRDGVFAVRHDPDTPLGPVFQVDYADLKAQEPDLPRLEEVLALKEAFPQAVFNVELKSFPGLGEEAARRLAALLRGREGVWVSSFDPLALLALRKAAPGLPLGFLMAEDHSALLPCLGVEAVHPHHALVTEEAVAGWRKRGLFVVAWTVNEEGEARRLLALGLDGLIGDRPEVLLPLGG	not failed
MTAGGTMTLKITFLGSGSSFAIGPENYQSNVLLELENDTLLIDAGTDIKYSLRDQGLSYKDIKNIYISHLHYDHCGGLEWFALITYFDPNLSHKPCLIASDKIINELWDKSLSGGLSTLPHERANLSAFFDVKAVKQYEGFVWRSIKFKLVQTVHYYSEYELMPSFGLIFSYNKSRILFTSDTQSCPVQLISFYEESDIIFHDCETTESKSGVHAHYSELVKLPSHLKKKMWLYHYNPGKLPNAKKDGFLGFVAKGQSFVF	failed
MTAKAACSDFLHFFRSWVSNPLRVAAIAPSGDSLARIMTSEIAALDGPIIELGPGTGVFTRALLARGVSEADLTLIEYGPEFITSLQARFPTARVLQMDAAHLAHADIFEGEPVGAVVSGLPLLSMSPRKIASILAGAFAYMRPGGAVYQFTYGPRCPVPRPILDRLGLKAVRIGGTVRNLPPASVYRISRRKPLELSRERFSYRSSAADVDDVAAFSNETGG	failed
MTAKPAVVGGFILGALALGVAAIVLFGGQRLFTSTREVVVFFNESVAGLQVGAPVTFHGVPVGTVKTIALRVSTRDLSARIPVVLELQPDQISWEGEHLNGDDDTYQRLIAAGLRAQLAPQSIVTGQMRVDLDFKPGTSAALSGEPTDLPEIPAVASDLDELRDKVTELPLRDLVETAQKTLANVQALTSSLNTRIPTLTTSAEQSVAVATQTLVTTQEAVRQIQADASVTLKELSDLLADLHRQVDARGGELGKTLSAAERTARQAESLMISLNELAGPRARFRADLEAAARDLSASASSTRSFTRTLERDPSALLSGDTKR	failed
MTAPLHLDSLFPSLDAIPEQYRPDAPIEQRDYLVDGQLRHWDGPLAPVRSPVFLAEADGERQVILGSTPLLDADAALAALDAAVRAYDHGQGLWPNLRVAERIQHVERFLARMREQREAVVKLLMWEIGKNLKDSEKEFDRTCDYIVDTIEALKELDRHSSRFELEQGTLGQIRRVPLGVALCMGPYNYPLNETFTTLIPALIMGNTVVFKPAKFGVLLIRPLLEAFRDSFPPGVINVIYGRGRETVSALMASGKVDVFAFIGTHSGASDLKKLHPRPHRLRAALGLDAKNPGIVLPQVDLDNAVNEAVTGALSFNGQRCTALKILFVHESVLRPFLDKFSARLASLKPGMPWEPGVALTPLPEPGKVDYLEGLLNDALAKGARVVNAGGGEHRQSFFYPALLSPVSPDMRLYHEEQFGPLVPVVPYRELDEVIDYVLRSDYGQQLSLFGNDPAQIGRLVDAFANQVGRINVNAQCQRGPDSYPFNGRKNSAEGTLSVHDALRVFSIRTLVATRDTEANKTLVSEII	failed
MTAQIRLAEPADLNDDTLRARAVAAARGDQRFDVLITGGTLVDVVTGELRPADIGIVGALIASVHEPASRRDAAQVIDAGGAYVSPGLIDTHMHIESSMITPAAYAAAVVARGVTTIVWDPHEFGNVHGVDGVRWAAKAIENLPLRAILLAPSCVPSAPGLERGGADFDAAILADLLSWPEIGGIAEIMNMRGVIERDPRMSGIVQAGLAAEKLVCGHARGLKNADLNAFMAAGVSSDHELVSGEDLMAKLRAGLTIELRGSHDHLLPEFVAALNTLGHLPQTVTLCTDDVFPDDLLQGGGLDDVVRRLVRYGLKPEWALRAATLNAAQRLGRSDLGLIAAGRRADIVVFEDLNGFSARHVLASGRAVAEGGRMLVDIPTCDTTVLKGSMKLPLRMANDFLVKSQGAKVRLATIDRPRFTQWGETEADVKDGFVVPPEGATMISVTHRHGMAEPTTKTGFLTGWGRWNGAFATTVSHDSHNLTVFGGNAGDMALAANAVIGTGGGMAVASEGKVTAILPLPLSGLVSDAPLEEVARAFEDLREAVGKVVEWQPPYLVFKACFGATLACNIGPHQTDMGIADVLTGKVMESPVIEVLG	failed
MTARNILSYSYEEYVEKITAFHGYPAPGVLIGGFMVDLAVKNLPEGILYDAICETRTCLPDAVQLLTPCTFGNGWLTVLPMGLFAVSLYDKFTGEGVRVFLDVEKMGPWQEIRNWFLKLKTKKEQDSERLFKEIREAGPDILELRNVKLKPGFLEKKHKGKIVLCPQCREAYPAQDGELCLSCQGGSPYL	not failed
MTASFPTRVYLLRHAKAAWAAPGERDFDRGLNEAGFAEAEIIADLAADRRYRPDLILSSTAARCRQTTQAWQRAFNEGIDIVYIDEMYNARSETYLSLIAAQTEVQSVMLVGHNPTMEATLEAMIGEDLLHAALPSGFPTSGLAVLDQDDSAASGKNRWRLIDFLAPGK	not failed
MTASIFSGVIPALMTPCRQDRTPDFDALVRKGKELIADGMSAVVYCGSMGDWPLLTDEQRMEGVERLVKAGIPVIVGTGAVNTASAVAHAVHAQKVGAKGLMVIPRVLSRGSVIAAQKAHFKAILSAAPEIPAVIYNSPYYGFATRADLFFALRAEHKNLVGFKEFGGPADMRYAAENITSRDDEVTLMIGVDTAVVHGFVNCGATGAITGIGNVLPKEVIHLCKLSQAAAKGDADARARALELEQALAVLSSFDEGPDLVLYFKYMMVLKGDKEYTLHFNETDALTDSQRGYVEAQFKLFNSWYADWSKLPGAVQTCKAA	not failed
MTASVTASVTAPETAPVPIVLAGARGHGRWHLDNIRRLQDRGLVRLAGICELTPLAEEELDGLGVPEQSADFGSLLDATGAAIAVICTPIPTHTDLALTAAERGVHLLLEKPPAPSFAEFRRMADGVAAAGVVCQIGFQSLGSGAVPGIRKLIAEGALGTVAGIGAAGAWARDEAYYRRAPWAGKRRLNGVDVIDGVLTNPLAHAVATALALDGSTRAEDVTDIETELLRANDIESDDTSCVRVTTKSGGRITVAATLCAEEPDEPYVLVHGDRGRITFWYKQDRVLVQRSGHGPQEIEYDRTDLLENLVGHLTHGAELLVTPESTGAFMKVVEAIRQAPDPVALPGDAWELIPGENRRVVRGVDGLVAAAADTLALYSELGASWALPNEVSSR	failed
MTATLQVTIVVGYLLVALAIGLLAYRVTERAAEDFYLASRTFGTAVLLFTVFATLLSAFTFFGGPDNAYAFGPEWILVMGLMDGLIFAILWYLIGYKQWLLGQRHGYVTLGEMFGDRFGSTGVRALVAVVSLFWLFPYVMLQQIGAGGALAALTDGVVPFWAGASLITGFMILYVVLAGMRGIAWTDTLQGAFMLCMVWAALVWVLVAVDGGVSTINAGLTESSPEFFALGSDFYTPGTMLTFAISIAFGVAMFPQVNQRFFTAASETVLKRSFALWPLLVLLLFVPAFLLGTWAQGLGLQADVGAGESILPILLDTYTPAWFAALVIAGAIAAMMSSSDSMLLSGSSYFTRDVYRPLVDDGITERQEDRLGRIGVAVFAIAALAASVWAEAEAFGAVAVGSVLVEIGDLAFGGFAQLTVPVLVALYWRGTTKQGLVAGILLPQAVYLAFNFLPATEVGSAMLFSETYLGWGISIYCLLLGLVATVVVSAATTKADSERPALFFESLRRG	failed
MTDAEYGLPRRSLLAGAAGAGAAFALPAGAAQAAPAASPQAGAERRHPRNWPDPEPYGAADTRADLWPREDNSFVLPLELRPRDQERGTVWMRDTYVNCFVVDGRPLYVATGTTRVPGLEAAGPWNDGIFVWLAPSLDGPWRLADTTGIRPGAERGKVWSPEFAGENRPGRTVVAPWQEYWHDEQFGKRGQAWAPELHYFRDTWYLVACMGDHSRKVGSFMLVSEGGVEGPYRLVEGNLDKPFGDSFIGGPKFIEPGAYHHIDGGLFSEGDDAWLVLHNDLYAKFRDDMEDIVTTTDLPRFRQTPYSPEPYLEGAYVFKYRGKYHLVHAAWDRTSVNADGTVRQAYDVPAAGRVQYQYDAIVAVADRFEGPYSKRYTAGVGAGHNNFFVDHRGGLWATYFLNPAAGYWSGASRVAESAVPGVVRLEWTGPAGGRLYVKRGSGGPGSGH	failed
MTDAPATPYAARTPVHEQHLDGFGTVRVLPLDPAADAAVVHGWVGEERAAFWGMNDLTRDQVAAVYAHMDTLDTHHAFLVVKDGEPAALLQTYDPAADRVSECYAAEPGDIGVHLLLAPAGAEGTRPGWTAALSGALMAYVLLGLDRTRIVVDPDVANEKAIARFLKQGFTAGPAVVLPEVDLPDVYLPEKKAQLAFLRREVAFGA	failed
MTDEIISYQKAKLAKNLAISTASKWLFVHSSTGGSATNLSIAQYATLINGIQSAIKCQVILTAGKGERERAVELAEKLTDQNVVIYDKNDGLADFTRSLACADLFIAGSTGPLHIAGGLNIPTVGFYPSRLSATPRRWRPINQVDKHLAFCPPSGKQCEMDLTLISIEQALTSVIPFIKKMWQLSLEHHHHHH	not failed
MTDFPTSLTSPGNRCEGCQQSQPLGFDFSFAYQPIVDLRDHSVFAHEALVRGVNGEGAGTVLGQVNDSNRYRFDQRCRTQAITLAAQLGMQSHLSINFMPNAVYRPELCIRSTLEAARAQRFPLDRLIFETLESQHVDNYRHLTNILREYREFGFKTAIDDFGSGYSGLNLLADFQPDLIKLDMALVRDVDQDRVRQAIIRAIVTMCAELGVTVIAEGIESAGERDFLSDCGIYLMQGYWFAKPAFKALAEVPAAAWNS	failed
